Experimental data taken from patent US20240228656A1.

B1: EPL159 (VHH)
VHH: QVQLQESGGGLVQAGGSLRLSCAASGFAFGNHWMYWYRQAPGRGRELVASISSGGSTNYVDSVKGRFTISRDNARNTVYLQMYSLKPEDTAVYYCGTSDNWGQGTQVTVSS
B2: EPL145 (VHH)
VHH: QVQLQESGGGLVQAGGSLRLSCAASGFIFRAASMGWFRQSPGNERELVATVSSGGFTNYADSVKGRFTISRDNAKNTVYLQMNSLKPEDTAVYFCGATFVRSDGHHTIYGQGTQVTVSS

Target: cynomolgus EpCAM protein (cynomolgus)
Assay: colorimetric ELISA

Chain of cynomolgus EpCAM protein (cynomolgus) (Q1WER1 27-265 limits assumed): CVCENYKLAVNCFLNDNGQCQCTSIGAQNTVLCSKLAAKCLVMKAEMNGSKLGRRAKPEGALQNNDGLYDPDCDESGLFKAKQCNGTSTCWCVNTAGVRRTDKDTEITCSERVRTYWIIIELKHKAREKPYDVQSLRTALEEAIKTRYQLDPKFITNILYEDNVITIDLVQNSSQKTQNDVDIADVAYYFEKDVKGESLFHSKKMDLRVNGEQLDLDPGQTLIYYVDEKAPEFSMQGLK

Binder | Cynomolgus EpCAM/Control | ELISA absorbance [absorbance]
B1 | 2 | 0.2
B2 | 2 | 0.4
